Patent publication US20080020979A1 (WISCONSIN ALUMNI RESEARCH FOUNDATION, published 2008)

Key:
[1] = target: mouse αvβ3 integrin (mouse) (UniProt P43406); assay: cell-based or functional assay
mouse αvβ5 integrin = mouse αvβ5 integrin (mouse, UniProt P43406 31-1044; O70309 24-798); assay: cell-based or functional assay
human αvβ3 integrin [2] = target: T1, human αvβ3 integrin (human, UniProt P06756 31-1048; P05106 27-788); assay: cell-based or functional assay
human αvβ5 integrin = human αvβ5 integrin (human, UniProt P06756 31-1048; P18084 24-799); assay: cell-based or functional assay
human αvβ3 integrin [3] = target: T1, human αvβ3 integrin; assay: co-immunoprecipitation from MDA-MB-231 cells, blot for β3 subunit

Chain of human αvβ5 integrin (P06756 31-1048, chain 1 of 2): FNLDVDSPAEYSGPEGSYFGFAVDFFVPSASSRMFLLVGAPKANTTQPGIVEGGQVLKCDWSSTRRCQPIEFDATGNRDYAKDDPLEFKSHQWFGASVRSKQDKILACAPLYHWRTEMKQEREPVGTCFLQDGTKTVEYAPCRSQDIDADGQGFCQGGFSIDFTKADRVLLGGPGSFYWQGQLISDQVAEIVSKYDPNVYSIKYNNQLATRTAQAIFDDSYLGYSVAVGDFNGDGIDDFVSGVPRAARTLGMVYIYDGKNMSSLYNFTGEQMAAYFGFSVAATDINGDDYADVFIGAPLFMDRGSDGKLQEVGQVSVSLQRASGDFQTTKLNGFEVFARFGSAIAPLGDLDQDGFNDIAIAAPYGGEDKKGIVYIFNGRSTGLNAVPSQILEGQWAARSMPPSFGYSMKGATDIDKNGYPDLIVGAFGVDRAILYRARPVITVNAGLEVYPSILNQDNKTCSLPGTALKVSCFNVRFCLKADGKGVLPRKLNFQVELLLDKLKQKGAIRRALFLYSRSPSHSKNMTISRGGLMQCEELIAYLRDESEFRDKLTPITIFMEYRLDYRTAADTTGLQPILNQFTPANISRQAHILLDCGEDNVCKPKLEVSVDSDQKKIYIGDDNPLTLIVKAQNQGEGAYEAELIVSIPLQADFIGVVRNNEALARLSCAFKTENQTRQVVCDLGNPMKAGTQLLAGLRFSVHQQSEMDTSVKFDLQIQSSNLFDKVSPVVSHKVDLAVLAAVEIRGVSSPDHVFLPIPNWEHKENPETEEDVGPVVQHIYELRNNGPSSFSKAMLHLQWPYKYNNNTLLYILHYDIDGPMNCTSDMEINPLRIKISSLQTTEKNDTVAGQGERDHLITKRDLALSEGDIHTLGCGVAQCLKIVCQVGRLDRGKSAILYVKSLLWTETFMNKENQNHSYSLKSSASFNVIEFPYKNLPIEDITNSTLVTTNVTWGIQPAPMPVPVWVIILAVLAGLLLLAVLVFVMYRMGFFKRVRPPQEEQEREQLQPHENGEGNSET
Chain of human αvβ5 integrin (P18084 24-799, chain 2 of 2): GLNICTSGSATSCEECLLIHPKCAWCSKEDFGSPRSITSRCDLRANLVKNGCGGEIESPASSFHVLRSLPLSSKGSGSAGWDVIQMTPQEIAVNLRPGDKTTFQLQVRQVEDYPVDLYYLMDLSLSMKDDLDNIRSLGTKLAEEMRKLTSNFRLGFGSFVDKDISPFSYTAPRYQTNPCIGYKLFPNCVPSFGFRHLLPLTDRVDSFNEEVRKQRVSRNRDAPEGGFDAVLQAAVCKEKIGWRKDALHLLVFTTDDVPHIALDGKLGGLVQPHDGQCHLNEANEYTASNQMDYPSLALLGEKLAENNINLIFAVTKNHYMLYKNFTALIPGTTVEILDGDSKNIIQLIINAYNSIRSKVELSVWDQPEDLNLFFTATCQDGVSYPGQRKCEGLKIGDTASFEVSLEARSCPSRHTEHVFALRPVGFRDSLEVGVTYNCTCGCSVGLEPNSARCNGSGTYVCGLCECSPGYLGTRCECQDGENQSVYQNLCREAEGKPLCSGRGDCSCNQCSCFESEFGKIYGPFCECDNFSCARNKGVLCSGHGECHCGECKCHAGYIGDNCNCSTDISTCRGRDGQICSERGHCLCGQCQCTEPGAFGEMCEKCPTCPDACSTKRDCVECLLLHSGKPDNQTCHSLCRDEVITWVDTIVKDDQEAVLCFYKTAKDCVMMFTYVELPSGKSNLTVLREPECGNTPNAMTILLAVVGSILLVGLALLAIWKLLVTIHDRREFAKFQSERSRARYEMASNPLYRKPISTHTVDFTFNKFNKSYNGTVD
T1 sequence (P06756 31-1048, chain 1 of 2): as the sequence (P06756 31-1048, chain 1 of 2) above
T1 sequence (P05106 27-788, chain 2 of 2): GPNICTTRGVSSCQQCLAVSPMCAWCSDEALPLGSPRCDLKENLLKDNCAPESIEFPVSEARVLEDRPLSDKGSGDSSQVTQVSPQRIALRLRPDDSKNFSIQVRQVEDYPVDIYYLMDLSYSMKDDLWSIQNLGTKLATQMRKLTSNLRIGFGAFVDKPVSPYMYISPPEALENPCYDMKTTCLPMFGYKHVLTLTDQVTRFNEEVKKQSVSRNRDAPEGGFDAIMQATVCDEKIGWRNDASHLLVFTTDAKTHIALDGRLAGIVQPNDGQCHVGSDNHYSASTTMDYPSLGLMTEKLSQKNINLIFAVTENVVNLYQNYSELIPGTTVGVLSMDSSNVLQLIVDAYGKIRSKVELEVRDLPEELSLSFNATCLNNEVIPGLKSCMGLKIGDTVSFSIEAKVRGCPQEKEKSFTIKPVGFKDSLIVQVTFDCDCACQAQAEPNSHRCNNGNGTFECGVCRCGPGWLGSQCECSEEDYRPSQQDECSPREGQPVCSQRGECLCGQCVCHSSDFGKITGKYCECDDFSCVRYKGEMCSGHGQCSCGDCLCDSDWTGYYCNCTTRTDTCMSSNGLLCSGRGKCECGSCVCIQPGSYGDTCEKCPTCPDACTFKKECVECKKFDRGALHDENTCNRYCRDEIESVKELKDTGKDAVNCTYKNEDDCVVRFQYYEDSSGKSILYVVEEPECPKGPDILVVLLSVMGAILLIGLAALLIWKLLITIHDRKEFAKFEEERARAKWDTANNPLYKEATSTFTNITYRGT
Chain of mouse αvβ5 integrin (P43406 31-1044, chain 1 of 2): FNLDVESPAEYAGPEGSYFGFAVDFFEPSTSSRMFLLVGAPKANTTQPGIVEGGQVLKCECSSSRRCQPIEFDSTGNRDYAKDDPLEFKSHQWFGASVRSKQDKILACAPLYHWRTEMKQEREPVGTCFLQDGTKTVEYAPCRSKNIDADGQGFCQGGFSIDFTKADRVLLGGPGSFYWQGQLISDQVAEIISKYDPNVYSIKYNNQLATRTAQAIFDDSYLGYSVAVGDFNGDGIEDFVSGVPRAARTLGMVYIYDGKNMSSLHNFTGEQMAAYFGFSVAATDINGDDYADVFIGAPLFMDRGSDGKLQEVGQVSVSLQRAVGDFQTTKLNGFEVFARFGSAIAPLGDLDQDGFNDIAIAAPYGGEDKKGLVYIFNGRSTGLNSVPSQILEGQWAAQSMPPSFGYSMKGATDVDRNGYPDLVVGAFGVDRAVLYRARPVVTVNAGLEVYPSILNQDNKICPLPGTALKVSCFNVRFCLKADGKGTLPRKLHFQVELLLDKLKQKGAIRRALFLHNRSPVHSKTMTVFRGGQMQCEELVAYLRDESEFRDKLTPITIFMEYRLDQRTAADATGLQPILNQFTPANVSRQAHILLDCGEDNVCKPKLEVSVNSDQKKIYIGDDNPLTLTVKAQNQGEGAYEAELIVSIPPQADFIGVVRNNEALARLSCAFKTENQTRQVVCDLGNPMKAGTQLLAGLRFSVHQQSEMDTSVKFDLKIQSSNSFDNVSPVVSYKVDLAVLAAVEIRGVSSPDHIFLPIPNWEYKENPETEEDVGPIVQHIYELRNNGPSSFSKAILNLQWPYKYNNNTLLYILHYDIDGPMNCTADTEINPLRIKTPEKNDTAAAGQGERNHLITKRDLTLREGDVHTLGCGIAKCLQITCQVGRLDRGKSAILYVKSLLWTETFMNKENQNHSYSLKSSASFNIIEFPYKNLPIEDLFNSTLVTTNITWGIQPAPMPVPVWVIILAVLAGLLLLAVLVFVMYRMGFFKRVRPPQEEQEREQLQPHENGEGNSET
Chain of mouse αvβ5 integrin (O70309 24-798, chain 2 of 2): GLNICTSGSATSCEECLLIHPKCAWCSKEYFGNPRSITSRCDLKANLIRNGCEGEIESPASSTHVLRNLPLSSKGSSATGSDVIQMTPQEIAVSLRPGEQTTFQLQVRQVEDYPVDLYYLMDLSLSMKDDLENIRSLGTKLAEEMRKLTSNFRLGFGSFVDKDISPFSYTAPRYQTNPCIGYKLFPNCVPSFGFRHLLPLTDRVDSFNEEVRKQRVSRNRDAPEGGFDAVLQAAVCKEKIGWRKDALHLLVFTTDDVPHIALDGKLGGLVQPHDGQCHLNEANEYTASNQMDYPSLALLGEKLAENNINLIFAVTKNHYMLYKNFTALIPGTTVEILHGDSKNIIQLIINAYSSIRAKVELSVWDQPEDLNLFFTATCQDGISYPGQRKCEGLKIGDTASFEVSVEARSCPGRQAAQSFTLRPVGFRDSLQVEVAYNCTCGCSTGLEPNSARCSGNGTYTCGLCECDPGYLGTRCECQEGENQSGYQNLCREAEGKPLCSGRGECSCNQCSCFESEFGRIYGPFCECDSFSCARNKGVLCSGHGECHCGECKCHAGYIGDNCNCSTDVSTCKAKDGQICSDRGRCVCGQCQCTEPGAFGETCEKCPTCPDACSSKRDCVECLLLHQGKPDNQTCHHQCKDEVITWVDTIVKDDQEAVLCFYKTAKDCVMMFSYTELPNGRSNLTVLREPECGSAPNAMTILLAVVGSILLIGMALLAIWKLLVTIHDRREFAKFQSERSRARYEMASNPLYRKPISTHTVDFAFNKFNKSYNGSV

GST-mS1ED (recombinant mouse Sdc1 ectodomain, amino acids 18-251, expressed as a fusion protein with GST) (from UniProt P18828 18-251)
spreading of mouse aortic endothelial cells on VN [1]: 1 µM
spreading of mouse aortic endothelial cells on VN (mouse αvβ5 integrin): 1 µM
HMEC spreading on VN (human αvβ3 integrin [2]): 5 µM
IC50, HAEC spreading on VN (human αvβ3 integrin [2]): 1000 nM
IC50, HMEC-1 spreading on VN (human αvβ3 integrin [2]): 3000 to 10000 nM
concentration that blocks endothelial cell attachment to VN altogether (human αvβ3 integrin [2]): 10 µM
percent reduction of HMEC spreading on VN at 1 µM mS1ED (human αvβ3 integrin [2]): > 80%
percent reduction of HMEC spreading on VN at 3 µM mS1ED (human αvβ3 integrin [2]): > 90%
HMEC spreading on VN (human αvβ5 integrin): 5 µM
IC50, HAEC spreading on VN (human αvβ5 integrin): 1000 nM
IC50, HMEC-1 spreading on VN (human αvβ5 integrin): 3000 to 10000 nM
concentration that blocks endothelial cell attachment to VN altogether (human αvβ5 integrin): 10 µM
percent reduction of HMEC spreading on VN at 1 µM mS1ED (human αvβ5 integrin): > 80%
percent reduction of HMEC spreading on VN at 3 µM mS1ED (human αvβ5 integrin): > 90%

B1: hSSTN 89-120 (amino acids 89-120 of the human Sdc1 sequence) (peptide)
peptide: STSTLPAGEGPKEGEAVVLPEVEPGLTAREQE
IC50, MDA-MB-231 attachment and spreading on VN (human αvβ3 integrin [2]): 100 to 300 nM

B2: mouse syndecan-1 mutant bearing deletion of amino acids 67-121 (receptor, UniProt P18828 23-311, looked up)
chain: QIVAVNVPPEDQDGSGDDSDNFSGSGTGALPDTLSRQTPSTWKDVTTRPRETVQLPITQRASTVRVTTAQAAVTSHPHGGMQPGLHETSAPTAPGQPDHQPPRVEGGGTSVIKEVVEDGTANQLPAGEGSGEQDFTFETSGENTAVAAVEPGLRNQPPVDEGATGASQSLLDRKEVLGGVIAGGLVGLIFAVCLVAFMLYRMKKKDEGSYSLEEPKQANGGAYQKPTKQEEFYA
notes: whole, on cells; also called mouse mutant lacking the active site
binding result (human αvβ3 integrin [3]): no binding

B3: SSTN88-117 (30-mer) (peptide)
peptide: FTSVLPAGEKPEEGEPVLHVEAEPGFTARD
fold less active, HMEC-1 attachment and spreading on VN (human αvβ3 integrin [2]): 3 fold
fold less active, HMEC-1 attachment and spreading on VN (human αvβ5 integrin): 3 fold

B4: hSSTN 88-121 (amino acids 88-121 of the human Sdc1 sequence) (peptide)
peptide: ASTSTLPAGEGPKEGEAVVLPEVEPGLTAREQEA
IC50, MDA-MB-231 attachment and spreading on VN (human αvβ3 integrin [2]): 100 to 300 nM

B5: synstatin82-130 (SSTN82-130, 49-mer, amino acids 82-130 of mouse Sdc-1) (peptide)
peptide: SNTETAFTSVLPAGEKPEEGEPVLHVEAEPGFTARDKEKEVTTRPRETV
IC50, B82L fibroblast spreading on VN (mouse αvβ5 integrin): ~100 nM
IC50, HMEC-1 spreading on VN (human αvβ3 integrin [2]): ~100 nM
IC50, MDA-MB-231 spreading on VN (human αvβ3 integrin [2]): ~100 nM
fold lower concentration than mS1ED for equal inhibition, endothelial cells on VN (human αvβ3 integrin [2]): 10 fold
IC50, HMEC-1 spreading on VN (human αvβ5 integrin): ~100 nM
fold lower concentration than mS1ED for equal inhibition, endothelial cells on VN (human αvβ5 integrin): 10 fold
